The record followed here is patent US20220298218A1 (ANTAG THERAPEUTICS, published 2022).

T1: human GIP receptor (human, UniProt P48546 22-466)
T1 sequence (looked up): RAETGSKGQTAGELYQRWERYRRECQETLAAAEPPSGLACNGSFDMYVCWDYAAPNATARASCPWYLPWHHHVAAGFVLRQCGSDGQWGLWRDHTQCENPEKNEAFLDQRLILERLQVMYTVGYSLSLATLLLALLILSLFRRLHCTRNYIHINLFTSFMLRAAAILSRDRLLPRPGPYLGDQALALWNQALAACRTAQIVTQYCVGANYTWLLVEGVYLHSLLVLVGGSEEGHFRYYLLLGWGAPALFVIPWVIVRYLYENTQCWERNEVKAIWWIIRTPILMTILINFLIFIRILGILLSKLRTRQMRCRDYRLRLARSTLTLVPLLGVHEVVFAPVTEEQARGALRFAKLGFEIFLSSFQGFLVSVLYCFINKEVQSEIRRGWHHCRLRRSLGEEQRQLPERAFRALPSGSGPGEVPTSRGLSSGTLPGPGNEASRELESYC

B1: AT690 (peptide)
peptide: EGTFISDYSIA[Nle]DKIK([AEEA-AEEA-γGlu-C18 diacid])QQDFVNWLLEQKPSSGAPPPS-OH
modifications: N-terminus assumed
SMILES: CCCC[C@H](NC(=O)[C@H](C)NC(=O)[C@@H](NC(=O)[C@H](CO)NC(=O)[C@H](Cc1ccc(O)cc1)NC(=O)[C@H](CC(=O)O)NC(=O)[C@H](CO)NC(=O)[C@@H](NC(=O)[C@H](Cc1ccccc1)NC(=O)[C@@H](NC(=O)CNC(=O)[C@@H](N)CCC(=O)O)[C@@H](C)O)[C@@H](C)CC)[C@@H](C)CC)C(=O)N[C@@H](CC(=O)O)C(=O)N[C@@H](CCCCN)C(=O)N[C@H](C(=O)N[C@@H](CCCCNC(=O)COCCOCCNC(=O)COCCOCCNC(=O)CC[C@H](NC(=O)CCCCCCCCCCCCCCCCC(=O)O)C(=O)O)C(=O)N[C@@H](CCC(N)=O)C(=O)N[C@@H](CCC(N)=O)C(=O)N[C@@H](CC(=O)O)C(=O)N[C@@H](Cc1ccccc1)C(=O)N[C@H](C(=O)N[C@@H](CC(N)=O)C(=O)N[C@@H](Cc1c[nH]c2ccccc12)C(=O)N[C@@H](CC(C)C)C(=O)N[C@@H](CC(C)C)C(=O)N[C@@H](CCC(=O)O)C(=O)N[C@@H](CCC(N)=O)C(=O)N[C@@H](CCCCN)C(=O)N1CCC[C@H]1C(=O)N[C@@H](CO)C(=O)N[C@@H](CO)C(=O)NCC(=O)N[C@@H](C)C(=O)N1CCC[C@H]1C(=O)N1CCC[C@H]1C(=O)N1CCC[C@H]1C(=O)N[C@@H](CO)C(=O)O)C(C)C)[C@@H](C)CC
B2: AT682 (peptide)
peptide: EGTFISDYSIALDKIK([AEEA-AEEA-γGlu-C18 diacid])QQDFVEWLLAQKPSSGAPPPS-OH
modifications: N-terminus assumed
SMILES: CC[C@H](C)[C@H](NC(=O)[C@H](CO)NC(=O)[C@H](Cc1ccc(O)cc1)NC(=O)[C@H](CC(=O)O)NC(=O)[C@H](CO)NC(=O)[C@@H](NC(=O)[C@H](Cc1ccccc1)NC(=O)[C@@H](NC(=O)CNC(=O)[C@@H](N)CCC(=O)O)[C@@H](C)O)[C@@H](C)CC)C(=O)N[C@@H](C)C(=O)N[C@@H](CC(C)C)C(=O)N[C@@H](CC(=O)O)C(=O)N[C@@H](CCCCN)C(=O)N[C@H](C(=O)N[C@@H](CCCCNC(=O)COCCOCCNC(=O)COCCOCCNC(=O)CC[C@H](NC(=O)CCCCCCCCCCCCCCCCC(=O)O)C(=O)O)C(=O)N[C@@H](CCC(N)=O)C(=O)N[C@@H](CCC(N)=O)C(=O)N[C@@H](CC(=O)O)C(=O)N[C@@H](Cc1ccccc1)C(=O)N[C@H](C(=O)N[C@@H](CCC(=O)O)C(=O)N[C@@H](Cc1c[nH]c2ccccc12)C(=O)N[C@@H](CC(C)C)C(=O)N[C@@H](CC(C)C)C(=O)N[C@@H](C)C(=O)N[C@@H](CCC(N)=O)C(=O)N[C@@H](CCCCN)C(=O)N1CCC[C@H]1C(=O)N[C@@H](CO)C(=O)N[C@@H](CO)C(=O)NCC(=O)N[C@@H](C)C(=O)N1CCC[C@H]1C(=O)N1CCC[C@H]1C(=O)N1CCC[C@H]1C(=O)N[C@@H](CO)C(=O)O)C(C)C)[C@@H](C)CC
B3: AT691 (peptide)
peptide: EGTFISDYSIALDKIK([AEEA-AEEA-γGlu-C18 diacid])QQDFVNWLLEGGPSSGAPPPS-OH
modifications: N-terminus assumed
SMILES: CC[C@H](C)[C@H](NC(=O)[C@H](CO)NC(=O)[C@H](Cc1ccc(O)cc1)NC(=O)[C@H](CC(=O)O)NC(=O)[C@H](CO)NC(=O)[C@@H](NC(=O)[C@H](Cc1ccccc1)NC(=O)[C@@H](NC(=O)CNC(=O)[C@@H](N)CCC(=O)O)[C@@H](C)O)[C@@H](C)CC)C(=O)N[C@@H](C)C(=O)N[C@@H](CC(C)C)C(=O)N[C@@H](CC(=O)O)C(=O)N[C@@H](CCCCN)C(=O)N[C@H](C(=O)N[C@@H](CCCCNC(=O)COCCOCCNC(=O)COCCOCCNC(=O)CC[C@H](NC(=O)CCCCCCCCCCCCCCCCC(=O)O)C(=O)O)C(=O)N[C@@H](CCC(N)=O)C(=O)N[C@@H](CCC(N)=O)C(=O)N[C@@H](CC(=O)O)C(=O)N[C@@H](Cc1ccccc1)C(=O)N[C@H](C(=O)N[C@@H](CC(N)=O)C(=O)N[C@@H](Cc1c[nH]c2ccccc12)C(=O)N[C@@H](CC(C)C)C(=O)N[C@@H](CC(C)C)C(=O)N[C@@H](CCC(=O)O)C(=O)NCC(=O)NCC(=O)N1CCC[C@H]1C(=O)N[C@@H](CO)C(=O)N[C@@H](CO)C(=O)NCC(=O)N[C@@H](C)C(=O)N1CCC[C@H]1C(=O)N1CCC[C@H]1C(=O)N1CCC[C@H]1C(=O)N[C@@H](CO)C(=O)O)C(C)C)[C@@H](C)CC
B4: AT693 (peptide)
peptide: EGTFISEYSIALEKIK([AEEA-AEEA-γGlu-C18 diacid])QQEFVEWLLAQKPSSGAPPPS-OH
modifications: N-terminus assumed
SMILES: CC[C@H](C)[C@H](NC(=O)[C@H](CO)NC(=O)[C@H](Cc1ccc(O)cc1)NC(=O)[C@H](CCC(=O)O)NC(=O)[C@H](CO)NC(=O)[C@@H](NC(=O)[C@H](Cc1ccccc1)NC(=O)[C@@H](NC(=O)CNC(=O)[C@@H](N)CCC(=O)O)[C@@H](C)O)[C@@H](C)CC)C(=O)N[C@@H](C)C(=O)N[C@@H](CC(C)C)C(=O)N[C@@H](CCC(=O)O)C(=O)N[C@@H](CCCCN)C(=O)N[C@H](C(=O)N[C@@H](CCCCNC(=O)COCCOCCNC(=O)COCCOCCNC(=O)CC[C@H](NC(=O)CCCCCCCCCCCCCCCCC(=O)O)C(=O)O)C(=O)N[C@@H](CCC(N)=O)C(=O)N[C@@H](CCC(N)=O)C(=O)N[C@@H](CCC(=O)O)C(=O)N[C@@H](Cc1ccccc1)C(=O)N[C@H](C(=O)N[C@@H](CCC(=O)O)C(=O)N[C@@H](Cc1c[nH]c2ccccc12)C(=O)N[C@@H](CC(C)C)C(=O)N[C@@H](CC(C)C)C(=O)N[C@@H](C)C(=O)N[C@@H](CCC(N)=O)C(=O)N[C@@H](CCCCN)C(=O)N1CCC[C@H]1C(=O)N[C@@H](CO)C(=O)N[C@@H](CO)C(=O)NCC(=O)N[C@@H](C)C(=O)N1CCC[C@H]1C(=O)N1CCC[C@H]1C(=O)N1CCC[C@H]1C(=O)N[C@@H](CO)C(=O)O)C(C)C)[C@@H](C)CC
B5: AT689 (peptide)
peptide: EGTFISDYSIALDKIK([AEEA-AEEA-γGlu-C18 diacid])QQDFVNWLLEQKPSSGAPPPS-OH
modifications: N-terminus assumed
SMILES: CC[C@H](C)[C@H](NC(=O)[C@H](CO)NC(=O)[C@H](Cc1ccc(O)cc1)NC(=O)[C@H](CC(=O)O)NC(=O)[C@H](CO)NC(=O)[C@@H](NC(=O)[C@H](Cc1ccccc1)NC(=O)[C@@H](NC(=O)CNC(=O)[C@@H](N)CCC(=O)O)[C@@H](C)O)[C@@H](C)CC)C(=O)N[C@@H](C)C(=O)N[C@@H](CC(C)C)C(=O)N[C@@H](CC(=O)O)C(=O)N[C@@H](CCCCN)C(=O)N[C@H](C(=O)N[C@@H](CCCCNC(=O)COCCOCCNC(=O)COCCOCCNC(=O)CC[C@H](NC(=O)CCCCCCCCCCCCCCCCC(=O)O)C(=O)O)C(=O)N[C@@H](CCC(N)=O)C(=O)N[C@@H](CCC(N)=O)C(=O)N[C@@H](CC(=O)O)C(=O)N[C@@H](Cc1ccccc1)C(=O)N[C@H](C(=O)N[C@@H](CC(N)=O)C(=O)N[C@@H](Cc1c[nH]c2ccccc12)C(=O)N[C@@H](CC(C)C)C(=O)N[C@@H](CC(C)C)C(=O)N[C@@H](CCC(=O)O)C(=O)N[C@@H](CCC(N)=O)C(=O)N[C@@H](CCCCN)C(=O)N1CCC[C@H]1C(=O)N[C@@H](CO)C(=O)N[C@@H](CO)C(=O)NCC(=O)N[C@@H](C)C(=O)N1CCC[C@H]1C(=O)N1CCC[C@H]1C(=O)N1CCC[C@H]1C(=O)N[C@@H](CO)C(=O)O)C(C)C)[C@@H](C)CC

*1 amine or outer side, *2 acyl side, *3 side chain or, on linkers, in order; H or OH if unused. Where no end group is shown, it is not given here. Side-chain parts run from the residue outwards. [ ]: non-standard residue; d: D form. The star is where a group is joined. C18 diacid = O=C(O)CCCCCCCCCCCCCCCCC(=O)*; γGlu = O=C(O)[C@H](CCC(=O)[*:2])N[*:1]; Nle = CCCC[C@H](N)C(=O)O; AEEA = NCCOCCOCC(=O)O

This assay concerns the target T1, human GIP receptor. Description: cell-based or functional assay.
As to B1, the “cAMP agonism % Emax” value was 6%, the “cAMP antagonism” value was 15.9 nM, the “cAMP antagonism % inhib” value amounted to 76% and the “cAMP antagonism pIC50” value is 7.8.

Regarding B2, the “cAMP agonism % Emax” value is 0%, the “cAMP antagonism” value is 13.6 nM, the “cAMP antagonism % inhib” value is 89% and the “cAMP antagonism pIC50” value stood at 7.9.

With B3, the “cAMP agonism % Emax” value came out at 7%, the “cAMP antagonism” value came to 20 nM, the “cAMP antagonism % inhib” value was 75% and the “cAMP antagonism pIC50” value is 7.8.

In the case of B4, the “cAMP agonism % Emax” value came out at 0%, the “cAMP antagonism” value was 1.26 nM, the “cAMP antagonism % inhib” value was found to be 96% and the “cAMP antagonism pIC50” value amounted to 8.9.

Consider EGTFISDYSIA[Nle]DKIK([AEEA-AEEA-γGlu-C18 diacid])QQDFVEWLLAQKPSSGAPPPS-OH [AT683], for which the “cAMP agonism % Emax” value came out at 0%, the “cAMP antagonism” value came out at 15.9 nM, the “cAMP antagonism % inhib” value is 93% and the “cAMP antagonism pIC50” value is 7.8.

Turning to B5, the “cAMP agonism % Emax” value was 3%, the “cAMP antagonism” value is 10 nM, the “cAMP antagonism % inhib” value stood at 82% and the “cAMP antagonism pIC50” value stood at 8.
